Experimental data taken from the supplement of paper PMC11780869.

system: Bacillus subtilis; assay: cleaved RNA product abundance (RNA/gDNA barcode ratio) relative to median wild-type variant (ratio to wild type); higher = more accumulation of the downstream cleavage product; conditions: experiment (reporter, strain, medium): exp 6: tetM reporter, strain 168; cleavage site: cggR-gapA (positions -7 to +36 mutated)
How it was run: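 In LB at 37°C, B. subtilis cultures went from OD600 0.0003 to 0.3. Their chromosomes held barcoded reporter mRNAs, truncated aprE or tetM, with RNase Y cleavage-site windows mutagenized via oligos at a 9% error rate. Cleaved RNA, chosen by gel, was reverse transcribed and barcode-sequenced alongside genomic DNA barcodes with UMI collapsing, giving a per-construct RNA:gDNA ratio scaled to the median construct with the unmutated site. This scaled ratio is termed cleaved product abundance.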

Point of comparison: “ACAGACGAAGGAGCCGTAAAGAAGTTATTAAGGCATGAATAATCCCTCAATATAAATATCTCTCACTTATTTAAA”, “cleaved RNA product abundance” value 0.143. Against it:
- ACAGACGAAGGAGCCGGAAAGAAGTTATTAAGGGATGAATAATCCCTCAATATAAATATCTCTCACTTATTTAAA — higher, 0.897
- ACAGACGAAGGAGCCGTAAAGAAGTTATTAAGGGATGAATAATCCCTCAATATAAATATCTCTCACTTATTTAAA — higher, 1.09
- ACAGACGAAGGAGCCTCAAAGAAGTTATTAAGGCATGAATAATCCCTCAATATAAATATCTCTCACTTATTTAAA — higher, 0.157
- ACAGACGAAGGAGCCTCAAAGAAGTTATTAAGGGATGAATAATCCCTCAATATAAATATCTCTCACTTATTTAAA — higher, 1.25
- ACAGACGAAGGAGCCTCAAAGAAGTTATTAAGTGATGAATAATCCCTCAATATAAATATCTCTCACTTATTTAAA — lower, 0.135
- ACAGACGAAGGAGCTGCAAAGAAGTTATTAAGGAATGAATAATCCCTCAATATAAATATCTCTCACTTATTTAAA — lower, 0.134
- ACAGACGAAGGAGCTGCAAAGAAGTTATTAAGGGATGAATAATCCCTCAATATAAATATCTCTCACTTATTTAAA — higher, 0.987
- ACAGACGAAGGAGTCGCAAAGAAGTTATTAAGGGATGAATAATCCCTCAATATAAATATCTCTCACTTATTTAAA — higher, 1.46

same assay, conditions: experiment (reporter, strain, medium): exp 8a: truncated aprE reporter, strain BJT201 with 2% xylose (RNase J1 expressed); cleavage site: glnRA (positions -5 to +31 mutated)

Point of comparison: “CGACATGTCCCGCTTCTTTCATTAACCCGTTAGCAACTGTTTTGCTATATAGATTTACCTTTTAAGAGGAGGAAT”, “cleaved RNA product abundance” value 0.53. Against it:
- CGACATGTCCCGCTTCTTTCATAATCCGTTAGCAACTGTTTTGCTATATACATTTACCTTTTAAGAGGAGGAATT — higher, 1.13
- CGACATGTCCCGCTTCTTTCATTAAAACGTTAGCAACTGTTTTGCTATATACATTTACCTTTTAAGAGGAGGAAT — higher, 0.868
- CGACATGTCCCGCTTCTTTCATTAAACCCTTAGCAACTGTTTTGCTATATACATTTACCTTTTAAGAGGAGGAAT — lower, 0.18
- CGACATGTCCCGCTTCTTTCATTAAACCGTAAGCAACTGTTTTGCTATATACATTTACCTTTTAAGAGGAGGAAT — lower, 0.203
- CGACATGTCCCGCTTCTTTCATTAAACCGTGAACAACTGTGTTGCAATATACATGTACCTTTTAAGAGGAGGAAT — lower, 0.222
- CGACATGTCCCGCTTCTTTCATTAAACCGTTACCAACTGTTTTGCTATATACATTTACCTTTTAAGAGGAGGAAT — lower, 0.189
- CGACATGTCCCGCTTCTTTCATTAAACCGTTAGAAACTGTTTTGCTATATACATTTACCTTTTAAGAGGAGGAAT — lower, 0.147
- CGACATGTCCCGCTTCTTTCATTAAACCGTTAGCAACAGTTTTGCTATATACATTTACCTTTTAAGAGGAGGAAT — higher, 1.01
- CGACATGTCCCGCTTCTTTCATTAAACCGTTAGCAACTGTCTTGCTATATACATTTACCTTTTAAGAGGAGGAAT — higher, 0.759
- CGACATGTCCCGCTTCTTTCATTAAACCGTTAGCAACTGTTATGCTATATACATTTACCTTTTAAGAGGAGGAAT — higher, 0.552
- CGACATGTCCCGCTTCTTTCATTAAACCGTTAGCAACTGTTTAACTATATACATTTACCTTTTAAGAGGAGGAAT — lower, 0.444
- CGACATGTCCCGCTTCTTTCATTAAACCGTTAGCAACTGTTTAGCTATATACATTTACCTTTTAAGAGGAGGAAT — lower, 0.248
- CGACATGTCCCGCTTCTTTCATTAAACCGTTAGCAACTGTTTCGCTATATACATTTACCTTTTAAGAGGAGGAAT — lower, 0.164
- CGACATGTCCCGCTTCTTTCATTAAACCGTTAGCAACTGTTTTACTATATACATTTACCTTTTAAGAGGAGGAAT — lower, 0.458
- CGACATGTCCCGCTTCTTTCATTAAACCGTTAGCAACTGTTTTGATATATACATTTACCTTTTAAGAGGAGGAAT — lower, 0.428
- CGACATGTCCCGCTTCTTTCATTAAACCGTTAGCAACTGTTTTGCGATATACATTTACCTTTTAAGAGGAGGAAT — lower, 0.352
- CGACATGTCCCGCTTCTTTCATTAAACCGTTAGCAACTGTTTTGCTACATACATTTACCTTTTAAGAGGAGGAAT — lower, 0.237
- CGACATGTCCCGCTTCTTTCATTAAACCGTTAGCAACTGTTTTGCTATATAAATTTACCTTTTAAGAGGAGGAAT — higher, 1.02
- CGACATGTCCCGCTTCTTTCATTAAACCGTTAGCAACTGTTTTGCTATATACATATACCTTTTAAGAGGAGGAAT — higher, 0.825
- CGACATGTCCCGCTTCTTTCATTAAACCGTTAGCAACTGTTTTGCTATATACATTTACCATTTAAGAGGAGGAAT — higher, 1.29
- CGACATGTCCCGCTTCTTTCATTAAACCGTTAGCAACTGTTTTGCTATATACATTTACCTTTTAAGAGGAGGAAT — higher, 0.915
- CGACATGTCCCGCTTCTTTCATTAAACCGTTAGCAACTGTTTTGCTATATACATTTACTTTTTAAGAGGAGGAAT — higher, 0.665
- CGACATGTCCCGCTTCTTTCATTAAACCGTTAGCAACTGTTTTGCTATATACATTTTCCTTTTAAGAGGAGGAAT — lower, 0.432
- CGACATGTCCCGCTTCTTTCATTAAACCGTTAGCAACTGTTTTGCTATATACTTTTACCTTTTAAGAGGAGGAAT — higher, 0.534
- CGACATGTCCCGCTTCTTTCATTAAACCGTTAGCAACTGTTTTGCTATATAGATTTACCTTTTAAGAGGAGGAAT — higher, 1.35
- CGACATGTCCCGCTTCTTTCATTAAACCGTTAGCAACTGTTTTGCTATATCCATTTACCTTTTAAGAGGAGGAAT — lower, 0.0869
- CGACATGTCCCGCTTCTTTCATTAAACCGTTAGCAACTGTTTTGCTTTATACATTTACCTTTTAAGAGGAGGAAT — lower, 0.165
- CGACATGTCCCGCTTCTTTCATTAAACCGTTAGCAACTGTTTTGTTATATACATTTACCTTTTAAGAGGAGGAAT — lower, 0.313
- CGACATGTCCCGCTTCTTTCATTAAACCGTTAGCAACTGTTTTTCTATATACATTTACCTTTTAAGAGGAGGAAT — lower, 0.464
- CGACATGTCCCGCTTCTTTCATTAAACCGTTATCAACTGTTTTGCTATATACATTTACCTTTTAAGAGGAGGAAT — lower, 0.218
- CGACATGTCCCGCTTCTTTCATTAAACCGTTTGCAACTGTTTTGCTATATACATTTACCTTTTAAGAGGAGGAAT — lower, 0.331
- CGACATGTCCCGCTTCTTTCATTAAACTGTTAGCAACTGTTTTGCTATATACATTTACCTTTTAAGAGGAGGAAT — higher, 1.02
- CGACATGTCCCGCTTCTTTCATTAACCCGTAAGCAACTGTTTTGCTATATACATTTACCTTTTAAGAGGAGGAAT — lower, 0.312
- CGACATGTCCCGCTTCTTTCATTAACCCGTTACCAACTGTTTTGCTATATACATTTACCTTTTAAGAGGAGGAAT — lower, 0.162
- CGACATGTCCCGCTTCTTTCATTAACCCGTTACTCACTGTTTTGGAATATACATTTACCTTTTAAGAGGAGGAAT — lower, 0.147
- CGACATGTCCCGCTTCTTTCATTAACCCGTTAGAAACTGTTTTGCTATATACATTTACCTTTTAAGAGGAGGAAT — lower, 0.187
- CGACATGTCCCGCTTCTTTCATTAACCCGTTAGCAACTGTATTGCTATATACATTCACCTTTTAAGAGGAGGAAT — lower, 0.379
- CGACATGTCCCGCTTCTTTCATTAACCCGTTAGCAACTGTTTTGCCATATACATTTACCTTTTAAGAGGAGGAAT — lower, 0.158
- CGACATGTCCCGCTTCTTTCATTAACCCGTTAGCAACTGTTTTGCTATATAAATTTACCTTTTAAGAGGAGGAAT — higher, 0.627
- CGACATGTCCCGCTTCTTTCATTAACCCGTTAGCAACTGTTTTGCTATATACATTTACATTTTAAGAGGAGGAAT — higher, 2.01
- CGACATGTCCCGCTTCTTTCATTAACCCGTTAGCAACTGTTTTGCTATATACATTTACCATTTAAGAGGAGGAAT — higher, 1.41
- CGACATGTCCCGCTTCTTTCATTAACCCGTTAGCAACTGTTTTGCTATATACATTTACCTTTTAAGAGGAGGAAT — higher, 0.819
- CGACATGTCCCGCTTCTTTCATTAACCCGTTAGCAACTGTTTTGCTATATACATTTACTTTTTAAGAGGAGGAAT — higher, 1.04
- CGACATGTCCCGCTTCTTTCATTAACCCGTTAGCAACTGTTTTGCTATATACCTATACCTTTTAAGAGGAGGAAT — higher, 0.789
- CGACATGTCCCGCTTCTTTCATTAACCCGTTAGCAACTGTTTTGCTATATATATTTACCTTTTAAGAGGAGGAAT — higher, 1.16
- CGACATGTCCCGCTTCTTTCATTAACCCGTTAGCAACTTTTTTGCTATATACATTTACCTTTTAAGAGGAGGAAT — higher, 0.909
- CGACATGTCCCGCTTCTTTCATTAACCCGTTAGCAAGTGTTTTGCTATATACATTTACCTTTTAAGAGGAGGAAT — lower, 0.522
- CGACATGTCCCGCTTCTTTCATTAACCCGTTAGTAACTGTTTTGCTATATACATTTACCTTTTAAGAGGAGGAAT — lower, 0.255
- CGACATGTCCCGCTTCTTTCATTAACCCTTTAGCAACTGTTTTGCTATATACATTTACCTTTTAAGAGGAGGAAT — lower, 0.181
- CGACATGTCCCGCTTCTTTCATTAAGCCGTAAGCAACTGTTTTGCTATATACATTTACCTTTTAAGAGGAGGAAT — lower, 0.519
- CGACATGTCCCGCTTCTTTCATTAAGCCGTTACCAACTGTTTTGCTATATACATTTACCTTTTAAGAGGAGGAAT — lower, 0.21
- CGACATGTCCCGCTTCTTTCATTAAGCCGTTAGCAACTGTTTTGCTATATACATTTACCTTTTAAGAGGAGGAAT — higher, 0.855
- CGACATGTCCCGCTTCTTTCATTAAGCCGTTAGCAACTGTTTTGTTATATACATTTACCTTTTAAGAGGAGGAAT — lower, 0.364
- CGACATGTCCCGCTTCTTTCATTAAGCCGTTATCAACTGTTTTGCTATATACATTTACCTTTTAAGAGGAGGAAT — lower, 0.21
- CGACATGTCCCGCTTCTTTCATTAAGCCGTTATCAACTGTTTTGCTATATTCATTTACCTTTTAAGAGGAGGAAT — lower, 0.0648
- CGACATGTCCCGCTTCTTTCATTAATACATTAACAACTGTTTTGCTATATACATTTACCTTTTAAGAGGAGGAAT — lower, 0.235
